Substrate in the series: O=C(O)Cc1ccc(O)c(O)c1
The series can be described thus: purified protein. To be noted: air-saturated (O2 ~260 μM), 50 mM sodium phosphate pH 7.5, 25 °C, Fe(II)/DTT-activated enzyme, stock kept with 0.5 mM ascorbic acid as preservative. The format is biochemical, Pseudomonas aeruginosa.

Results on 1 protein are retold here after PMC5291488, “3,4-Dihydroxyphenylacetate 2,3-dioxygenase from Pseudomonas aeruginosa: An Fe(II)-containing enzyme with fast turnover” (PLoS ONE, 2017).

B1: PaDHPAO (3,4-dihydroxyphenylacetate 2,3-dioxygenase) (Pseudomonas aeruginosa PAO1) (protein)
chain: MGKVALAAKITHVPSLYLSELPGPRHGCRQPAIDGHREIGRRCRELGVDTIVVFDTHWLVNAGYHINCAPHFEGLYTSNELPHFIANMEYGFPGNPELGRILAEGCNALGVETLAHDATTLGPEYGTLVPMRYMNQDRHFKVVSVSALCTVHYLNDSARLGWAMRKAVEEHYDGTVAFLASGSLSHRFAQNGQAPDFSDRIWSPFLEVLDHEVVQMWQEGRWAEFCGMLPEYASKGHGEGFMHDTAMLLGALGWSAYDGKAEVVTPYFGSSGTGQINAVFPVTAQDGSAIPAAQAGNPAGASCASRL
notes: N-terminus MGKVA from primer
By Km is commonly meant the substrate concentration at which the rate is half of its maximum. The term kcat denotes the maximal rate divided by the concentration of active sites. Usually kcat/Km stands for the turnover number divided by the Michaelis constant. B1: the Km was 58 ± 8 µM, the kcat was found to be 63.5 s⁻¹ and the kcat/Km worked out at 1.1e+06 M⁻¹ s⁻¹.
